Data reported in US8460929B2, “Methods of tissue generation and tissue engineered compositions” (The Regents of the University of California, priority 2007, dated 2013).

Experiments:
[1] = system: isolated ureteric bud; assay: Isolated ureteric bud culture in 3D extracellular matrix gel (soluble factor effects); type: cell-based, rat; conditions: for growth of the isolated UB, single soluble factor: factor by itself; for induction of isolated UB, WD, or UB and WD branching morphogenesis: factor alone or in combination with GDNF, without BSN-CM; for Shape: rat E13 isolated UB in 3D gel, GDNF 125 ng/ml, HRG 500 ng/ml, FGF1 250 ng/ml, FGF7 50 ng/ml, PTN purified from BSN-CM
Description: In the case of culture of the isolated UB, WD, or UB and WD, the isolated kidneys were trypsinized for 15 min at 37° C. in L-15 media containing 2 μg/ml trypsin (Sigma). Trypsin digestion was arrested by the addition of 10% FCS and the kidneys were removed to fresh L-15 where the UBs, WDs, or UBs and WDs were isolated from surrounding MM by mechanical dissection. isolated UBs, WDs, or UBs and WDs were suspended within an extracellular matrix gel [1:1 mixture of growth factor reduced Matrigel™ (BD) and Type 1 collagen (BD)] applied to the top of a polyester Transwell filter (0.4 μm pore size; Corning-Costar). The Transwells were placed within individual wells of a 24-well tissue culture dish containing 400 μl of either whole BSN-CM, purified tractions of BSN-CM, or D-12 which were supplemented with human recombinant FGF1 (250 ng/ml; R&D Systems), rat recombinant GDNF (125 ng/ml; R&D Systems) and 10% FCS and cultured. Phase-contrast photomicrographs of the developing UB, WD, or UB and WD were taken using a RT-Slider Spot Digital Camera (Diagnostic Instruments Inc.) attached to a Nikon Eclipse TE300 Inverted Microscope.
Isolated ureteric bud, Wolffian duct bud, or ureteric and Wolffian duct buds were obtained from whole embryonic kidneys as described herein. Briefly, the embryonic kidney was lightly digested with trypsin and the UB, WD, or UB and WD were separated from the MM using fine-tipped needles. The UBs, WDs, or UBs and WDs were suspended within a matrix containing growth factor reduced Matrigel™ and Type I collagen and buffered by HEPES, NaHCO3, and DMEM to a pH of approximately 7.2. This mixture containing the suspended UB, WD, or UB and WD was applied to the top of the Transwell filter and the purified factor is applied to the well. The factor is supplemented with GDNF (125 ng/ml) and 10% FCS, and the isolated UBs, WDs, or UBs and WDs are cultured at 37° C. and humidified 5% CO2 atmosphere and branching morphogenesis, was assayed.
The entire urogenital tract was isolated from timed pregnant Holtzman rats at embryonic day 13 (E13). Kidney rudiments were dissected and lightly digested in trypsin for 15 minutes, after which the ureteric buds were mechanically separated from the metanephric mesenchyme. For the growth factor optimization, the buds were suspended within a matrix containing growth factor-reduced Matrigel™ and DMEM/F12 (50:50 v/v) on a 0.4 μm pore sized Transwell filter and BSN-conditioned media supplemented with 10% FCS and 1% antibiotics was placed beneath the filter. GDNF (125 ng/ml), FGF1 (250 ng/ml), FGF7 (50 ng/ml), HRG (500 ng/ml), PTN (purified from BSN-CM) was added to the media in various combinations to achieve a “minimal” and “most robust” growth factor condition. For the matrix optimization, isolated buds were cultured in a BSN-CM supplemented with 10% FCS, GDNF (125 ng/ml), FGF1 (250 ng/ml), and 1% antibiotics. Isolate buds were suspended in matrices (natural and artificial) consisting of growth factor reduced Matrigel™ diluted with DMEM/F12 (15%, 25%, 50%, 75% and 100%), type I collagen (3.0 mg/ml), Puramatrix™, 1% alginate solution (crosslinked with 100 mM CaCl2), and type IV collagen (0.75 mg/mL). In some cases, type I collagen, laminin 1, alginate or type IV collagen were added to a 50% growth factor reduced Matrigel™ solution. All matrix solutions were supplemented with DMEM and buffered by HEPES and NaHCO3 to a pH of approximately 7.2. The isolated buds were then cultured at 37° C. in a humidified 5% CO2 atmosphere.

[2] = system: UB, WD, or UB and WD derived cells; assay: UB cell three-dimensional culture (tubulogenic activity); type: cell-based, mouse; conditions: collagen/Matrigel gel, 1% FCS, 4 days
Description: Confluent monolayers of UBs, WDs, or UBs and WDs were removed from tissue culture dishes by light trypsinization and the cells. 20,000 cells/ml were suspended in an extracellular matrix gel composed of 80% Type 1 collagen and 20% growth factor-reduced Matrigel™. 100 μl of the UB, WD, or UB and WD cell-containing gel was then aliquoted into individual wells of a 96-well tissue culture plate. After gelation, 100 μl of growth medium (DMEM/F12 with or without purified pleiotrophin) supplemented with 1% FCS was applied to each well and the cultures were incubated at 32° C. in 5% CO2 and 100% humidity. Following 4 days of culture, the percentage of cells/colonies with processes was counted as an indicator of the tubulogenic activity. Phase-contrast photomicrographs were taken as described herein.

[3] = system: whole embryonic kidney; assay: Whole embryonic kidney organ culture; type: cell-based, rat
Excerpt: Timed pregnant female Sprague-Dawley rats at day 13 of gestation (day 0 coincided with appearance of the vaginal plug) were sacrificed and the uteri were removed. The embryos were dissected free of surrounding tissues and the kidneys were isolated. For the culture of the whole kidney rudiment, 2-3 kidneys were applied directly to the top of a polyester Transwell filter (0.4 μm pore size; Corning-Costar). The Transwells were then placed within individual wells of a 24-well tissue culture dish containing 400 μl DMEM/F12 supplemented with 10% FCS with or without purified pleiotrophin. Following 7 days of culture, the kidneys were fixed in 2% paraformaldehyde and doublestained with fluorescein-conjugated Dolichos biflorus, a lectin which binds specifically to UB, WD, or UB and WD-derived structures, and rhodamine conjugated peanut agglutinin, a lectin which binds to structures derived from the MM. Fluorescent staining was detected using a laser-scanning confocal microscope (Zeiss).

[4] = system: Wolffian duct; assay: Wolffian duct budding in vitro; type: cell-based, rat; conditions: whole mesonephros on Transwell filter, 10% serum and 10 ng/mL GDNF, two days
Excerpt: The entire urogenital tract was isolated from timed pregnant Holtzman rats at embryonic day 13 (E13). Kidney rudiments were dissected, and the Wolffian duct was transected and removed. In some cases, the mesonephric tubules and most of the intermediate mesoderm were mechanically separated from the WD leaving a thin layer of the intermediate mesoderm that remained adherent to the WD. In some cases, the intermediate mesoderm was carefully stripped away in its entirety so that the epithelial tube of the WD remained intact. The WD with mesonephros and the WD with intermediate mesoderm were placed on 0.4 μm pore size Transwell filters and cultured at the air-media interface. The isolated WD devoid of all intermediate mesoderm was suspended in a matrix containing growth factor reduced Matrigel'm and DMEM/F12 (50:50 v/v) on a 0.4 μm pore sized Transwell filter. All cultures were carried out at 37° C. in a fully humidified 5% CO2 atmosphere in the presence of DMEM/F12 (50:50) media supplemented with 10% fetal calf serum (FCS), GDNF (10 ng/mL for the WD plus mesonephros, 125 ng/ml WD plus mesoderm and isolated WD) and, if necessary, either FGF1 (250 ng/ml) or FGF7 (50 ng/ml).

## heregulin [HRG]
[1]
  growth of the isolated UB, single soluble factor: did not support growth

## Hepatocyte growth factor [HGF, reference compound]
[1]
  induction of isolated UB, WD, or UB and WD branching morphogenesis: does not induce branching morphogenesis

## fibroblast growth factor-1 [FGF1]
[1]; 250 ng/ml FGF1
  effect of added FGF1 on inductive capacity of BSN-CM: could potentiate the activity of the BSN-CM
[1]
  induction of isolated UB, WD, or UB and WD branching morphogenesis: not sufficient to induce
  Shape: tubular

B1: pleiotrophin (protein, UniProt P21246 33-168, looked up)
Pleiotrophin: GKKEKPEKKVKKSDCGEWQWSVCVPTSGDCGLGTREGTRTGAECKQTMKTQRCKIPCNWKKQFGAECKYQFQAWGECDLNTALKTRTGSLKRALHNAECQKTVTISKPCGKLTKPKPQAESKKKKKEGKKQEKMLD
[1]; 156 ng/ml-2.5 pg/ml purified pleiotrophin
  morphology of the branching UB, lower concentrations: dichotomous branching and elongation of the stalk
[1]; cultures in collagen IV or basement membrane Matrigel
  concentrations useful for morphogenetic activity: 200 to 600 ng/mL
[1]
  growth of the isolated UB, single soluble factor: did not support growth
[1]; pure pleiotrophin isolated from Swiss 3T3 conditioned medium
  branching morphogenesis of the isolated UB, pleiotrophin purified from 3T3 conditioned medium: capable of inducing impressive branching morphogenesis
[1]; supplemented with GDNF, in the absence of FGF1
  induction of UB, WD, or UB and WD branching morphogenesis: capable of inducing
[1]; ≧5 μg/ml purified pleiotrophin
  morphology of the branching UB, high concentration: robust proliferation with less elongation
[2]
  formation of branching structures of UB cells in three dimensional culture: capable of inducing the formation of branching structures
[3]; exogenously added pleiotrophin, 7 days
  growth of the UB in whole embryonic kidney organ culture: disproportionately stimulated growth
[3]; high concentrations of pleiotrophin
  Nephron induction visualized with PNA lectin: appeared to be normal

B2: recombinant human pleiotrophin: recombinant human pleiotrophin produced in the insect cell line (R&D systems) (protein, UniProt P21246 33-168, looked up)
Pleiotrophin: GKKEKPEKKVKKSDCGEWQWSVCVPTSGDCGLGTREGTRTGAECKQTMKTQRCKIPCNWKKQFGAECKYQFQAWGECDLNTALKTRTGSLKRALHNAECQKTVTISKPCGKLTKPKPQAESKKKKKEGKKQEKMLD
[1]; E13 rat bud in extracellular matrix gel, with GDNF
  branching morphogenesis of the isolated UB, WD, or UB and WD: unable to induce

B3: glial cell-derived neurotrophic factor (protein, UniProt P39905 78-211, looked up)
Glial cell line-derived …: SPDKQMAVLPRRERNRQAAAANPENSRGKGRRGQRGKNRGCVLTAIHLNVTDLGLGYETKEELIFRYCSGSCDAAETTYDKILKNLSRNRRLVSDKVGQACCRPIAFDDDLSFLDDNLVYHILRKHSAKRCGCI
notes: growth factor obtained from R&D Systems
[1]
  growth of the isolated UB, single soluble factor: did not support growth
[4]
  Wolffian duct budding: numerous budding events occurred at multiple foci along the WD

B4: fibroblast growth factor-7 (protein, UniProt P21781 32-194, looked up)
Fibroblast growth factor 7: CNDMTPEQMATNVNCSSPERHTRSYDYMEGGDIRVRRLFCRTQWYLRIDKRGKVKGTQEMKNNYNIMEIRTVAVGIVAIKGVESEFYLAMNKEGKLYAKKECNEDCNFKELILENHYNTYASAKWTHNGGEMFVALNQKGIPVRGKKTKKEQKTAHFLPMAIT
notes: as for B3
[1]
  Shape: globular
